B1: BZ57/BZ109 25 bp Cy3 duplex (dsDNA)
DNA 1: GATGCCTCCAAGGTCGACGATGCAG
DNA 2: CTGCATCGTCGACCTTGGAGGCATC
modifications: internal Cy3 in backbone after nt 4 of each strand
B2: BZ91/BZ107 25 bp duplex (dsDNA)
DNA 1: GATGCCTCCAAGGTCGACGATGCAG
DNA 2: CTGCATCGTCGACCTTGGAGGCATC

Biological target: Ku70/80 heterodimer (Ku) (UniProt P12956;P13010 1-609;1-732)
Experiment: EMSA

Ku70/80 heterodimer (Ku), sequence (P12956 whole entry, chain 1 of 2): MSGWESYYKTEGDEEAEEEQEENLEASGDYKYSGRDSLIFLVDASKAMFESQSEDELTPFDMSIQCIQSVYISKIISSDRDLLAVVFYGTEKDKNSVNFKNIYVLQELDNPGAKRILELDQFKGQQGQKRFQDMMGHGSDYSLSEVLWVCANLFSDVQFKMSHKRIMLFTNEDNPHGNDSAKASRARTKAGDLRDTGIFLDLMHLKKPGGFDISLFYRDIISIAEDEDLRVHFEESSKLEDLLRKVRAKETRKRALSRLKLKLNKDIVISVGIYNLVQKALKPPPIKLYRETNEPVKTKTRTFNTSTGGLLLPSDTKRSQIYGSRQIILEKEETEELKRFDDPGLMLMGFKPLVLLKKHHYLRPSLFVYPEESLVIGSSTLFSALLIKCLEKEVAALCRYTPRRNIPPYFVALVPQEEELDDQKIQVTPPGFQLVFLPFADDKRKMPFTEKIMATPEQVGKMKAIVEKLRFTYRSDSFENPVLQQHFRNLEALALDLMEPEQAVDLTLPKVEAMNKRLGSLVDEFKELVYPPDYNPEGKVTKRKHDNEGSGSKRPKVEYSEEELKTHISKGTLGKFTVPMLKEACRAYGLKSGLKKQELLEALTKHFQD
Ku70/80 heterodimer (Ku), sequence (P13010 whole entry, chain 2 of 2): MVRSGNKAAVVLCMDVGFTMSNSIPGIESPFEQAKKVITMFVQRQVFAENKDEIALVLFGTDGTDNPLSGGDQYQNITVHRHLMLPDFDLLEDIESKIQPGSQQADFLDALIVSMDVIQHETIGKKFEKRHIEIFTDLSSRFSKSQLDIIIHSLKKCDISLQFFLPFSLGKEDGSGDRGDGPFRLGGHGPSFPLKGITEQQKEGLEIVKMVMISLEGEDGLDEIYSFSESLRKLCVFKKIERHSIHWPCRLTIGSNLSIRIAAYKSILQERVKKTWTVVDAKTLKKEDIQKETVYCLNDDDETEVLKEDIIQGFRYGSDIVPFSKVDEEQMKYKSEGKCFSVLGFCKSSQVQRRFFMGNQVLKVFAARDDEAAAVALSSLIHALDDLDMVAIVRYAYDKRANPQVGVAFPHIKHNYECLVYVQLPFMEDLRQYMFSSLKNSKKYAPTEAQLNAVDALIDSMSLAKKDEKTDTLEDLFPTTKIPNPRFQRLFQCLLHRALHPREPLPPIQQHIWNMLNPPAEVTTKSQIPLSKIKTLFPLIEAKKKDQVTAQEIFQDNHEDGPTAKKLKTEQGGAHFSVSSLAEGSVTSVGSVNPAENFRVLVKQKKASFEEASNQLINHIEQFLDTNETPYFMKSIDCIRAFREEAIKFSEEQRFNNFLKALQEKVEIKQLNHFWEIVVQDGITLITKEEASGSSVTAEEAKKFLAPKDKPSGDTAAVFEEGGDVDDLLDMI

Binder	Kd
B1	0.11 nM
B2	0.086 nM

Source: publication PMC7144918
